In patent publication US20240026407A1, “MODIFICATION OF SAPONINS” (GLAXOSMITHKLINE BIOLOGICALS SA, priority 2020, published 2024):

Assays:
Type in all cases: biochemical, Quillaja saponaria
[1] = Experiment 6-2: screening of rhamnosidases for derhamnosylation of saponins in treated bark extract (25%), relative % of Left, Middle and Right Peak by UV HPLC; details: TBE 25%, pH 7.4, 19.5 h; for Left Peak: mainly QS-17 family, negative control 24%; for Middle Peak: mainly QS-18 and desglucosyl-QS-17 family, negative control 50%; for Right Peak: mainly QS-21 family, negative control 26%
[2] = Experiment 6-1: screening of rhamnosidases for derhamnosylation of saponins in treated bark extract (2%), QS-17 2296 to QS-18 2150 (PAR %); details: TBE 2%, pH 7.5, 30 degC, 18 h; TIC peak area ratio percent of rhamnosylated starting saponin to derhamnosylated product, LCMS/MS; negative controls 4.876, 5.225
[3] = Experiment 6-1: screening of rhamnosidases for derhamnosylation of saponins in treated bark extract (2%), QS-17 2310 to QS-18 2164 (PAR %); details: TBE 2%, pH 7.5, 30 degC, 18 h; TIC peak area ratio percent, LCMS/MS; negative controls 3.061, 2.429
[4] = Experiment 6-1: screening of rhamnosidases for derhamnosylation of saponins in treated bark extract (2%), desglucosyl-QS-17 2134 to QS-21 1988 (PAR %); details: TBE 2%, pH 7.5, 30 degC, 18 h; TIC peak area ratio percent, LCMS/MS; negative controls 2.719, 2.158
[5] = Experiment 6-1: specificity of rhamnosidases towards other rhamnose residues (C3 saccharide rhamnose, C28 saccharide rhamnose); details: TBE 2%, pH 7.5, 30 degC, 18 h; LCMS/MS; negative controls 0.18, 0.17
[6] = Experiment 6-3: screening of rhamnosidases for derhamnosylation of saponins in crude bark extract (80%), relative % of Left, Middle and Right Peak by UV HPLC; details: CBE 80%, pH 7.4, 30 degC, 19.5 h; for Left Peak: mainly QS-17 family, negative control 27%; for Middle Peak: mainly QS-18 and desglucosyl-QS-17 family, negative control 48%; for Right Peak: mainly QS-21 family, negative control 26%
Summary of the method: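 Clarified lysates of expressed rhamnosidase variants were incubated with crude bark extract (pH 7.4, final 80%) at 30 degC with shaking for 19.5 h, then quenched with MeCN+2% AcOH. UV HPLC gave relative % of Left (QS-17), Middle (QS-18/desglucosyl-QS-17) and Right (QS-21) peaks.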

[7] = Experiment 5-2: screening of additional glucosidases for deglycosylation with QS-18 in crude bark extract (80%) at pH 6 and 35 deg C; details: CBE 80%, pH 6, 35 deg C, 18 hours; UV HPLC
Method: A plate was lysed at pH 6 as described in Experiment 4-2. 40 uL of clarified lysate was transferred to a reaction plate
The pH of CBE was adjusted to pH 6 by dropwise addition of 2M NaOH with stirring. 160 uL of pH 6 CBE was added to each well of the reaction plate. The reaction plate was sealed and incubated at 35 deg C. with shaking for 18 hours.
The reaction plate was quenched by adding 200 uL of MeCN (2% acetic acid (AcOH), 1 mg/mL hexanophenone) to each well of the plates. The quenched reaction plate was re-sealed and incubated at 20 deg C. with shaking for 10 min. The reaction plate was then centrifuged (10 min, 4 degC).
200 uL was transferred from each well of the quenched plate to the corresponding wells of a fresh 96 well plate and sealed. The plate was analysed by UV HPLC with the method of Experiment 4-4.

[8] = Experiment 5-1: screening of additional glucosidases for deglycosylation with purified QS-18 (0.04 mg/ml) at pH 7.5 and 30 deg C; details: pH 7.5, 30 degrees C, 18 hours, LCMS/MS
Method: The 94 additional genes, together with positive control (DNA encoding SEQ ID No. 262) and negative control, were transformed, expressed, lysed and reacted in the same manner as described above for Experiment 4-1, except the reaction was incubated at 30 degrees C. for 18 hours.
Samples were analysed by LCMS/MS according to the procedure in Experiment 4-1.

[9] = Experiment 5-3: screening of additional glucosidases for deglycosylation with QS-18 in treated bark extract (80%) at pH 6 and 35 deg C; details: TBE 80% (QS-21 approx. 4 g/L), pH 6, 35 deg C; UV HPLC
Method: Experiment 5-1 was repeated, replacing CBE with Treated Bark Extract (TBE) at pH 6. TBE was prepared from CBE by PVPP treatment and concentration, to provide TBE with a QS-21 concentration of approximately 4 g/L. TBE was adjusted to pH 6 by dropwise addition of 2M NaOH with stirring.

Row | Molecule | Left Peak [1] [%] | Middle Peak [1] [%] | Right Peak [1] [%] | QS-17 (PAR %) [2] [%] | Peak57 (PAR %) [3] [%] | Peak75 (PAR %) [4] [%] | ratio PP/QS-21 [5] | Left Peak [6] [%] | Middle Peak [6] [%] | Right Peak [6] [%] | Experiment 5-2 % conv [7] [%] | Experiment 5-1 % conv [8] [%] | Experiment 5-3 % conv [9] [%]
1 | 1073 (protein, listed as Streptomyces scabiei) MSHERATAEGTSAAARTAHRPHESPVHGLTVEHRTDPLGVDADRPRFGWRTRSASRGWRQGSYQILVATSPELLTPASADVWDSGRVRSADSVAVRYAGVPLRASTRYHWTVRVWNTEGRAAGTASPAVFETGLMSTDGVGGWDGARWIGMKGKVPGSPGAPLLRTRETLGCGDGRTVGDARLYISALGVYEAHVNGERVTVRQDGERTLELLPPGWTNYDARVDYLTYDVTVLLADGPEVTLAVVLGNGWYNGRVSEGSTYHTQSGNALAVKAKLLIRYTDGTTRSVVTGTSGGWKATDTGPFRADDLYDGQTYDARRELPGWTAPGFDDTAWSDVEHIAFEDRYPGVRLRAYPGESARFVDRWDRRPQSVTVITGVTGQDGSPHGRGRVVVDPARTVTDPAKAATAQVTLAAGETAVFDLGQNMVGVPRYGVRGPAGARVEFRFAEILNDDSAGADGPEGSLYRANLRSAKATSTYILKGDPEGETHQDSLTFYGFRHVSVTASETVTVTGLTGRVATSAVRETGTVTTNDPHVDKLASNIRWGQRGNYLWVPTDCPQRDERLGWTGDTQVFAVTGLYNADAYTFLSHFQDTVVDSQAIYGADGAQYTGVAPGGRYNFPGGGSGWADCGVVLPWTLWQMTGDTTVVEDNWPSMVRYLDWIRRQTGDTYAGQGSLTGDWLAPQKTSAQLMSDAYYGYSAHLMARMARAIGRAEEAATYERLFGRIRQAFIARYLSTEGGRVTVRSGLGDASPIEPGSDPNEKTEDNSQSALLWVLKLGFYENEAQRRALVALLADDIRNDAAHKEAHPDSVRVRYPENTLSVGFLGVNILAPVLTDEGRADLAYELLHQDALPSWLFSVKNGATTVWERWNSWAEDAGFGPVGMNSFNHYAYGAIMEWMYAYMAGIARDPDAPGFKRFLLQPHLDPTGRITRVRATHESPYGEILSAWEVGSGGRRLAYDVAVPANSEATLRVPAVSADSVREGGTPLADVAGVRFLGHTEGVSSYLLPSGRYRLSADLR | 6 | 62 | 31 | 0.007 | 0.000 | 0.000 | 0.18 | 20 | 52 | 28 | – | – | –
2 | 888 (protein, uncultured Microbacterium sp.) MTESVAHLRPLLDALTLEQKAALVQGADFWTTVPLPEIGLRAMTLSDGPSGVRGPRWDEREPSLNLPSGSALAASWDVDLAYRYGAAAASEARRKGVDVVLGPTINLHRSPLGGRHFECFSEDPELTAELAAAYVRGMQDNGVAATPKHYVANDSETDRFTVDVDVDDRALRELYLAPFERAVEAGAWSVMSAYNAVDGVTMTENDLLETPLNSEWGFDGVVVSDWTAVRSLDAVAAAQDLAMPGPAPAWADLLAAVRDGRVQEADLDRKVLRLLLLAERVGALEGSTALEPAPVDAEAFAREAGIEGTVLLRNTGALPLDVAAIRSIAVIGHNARDARTQGGGSATVLPERTVSPLDGLREALPEADLRYEIGAVVQEGVAEIPVAQLRNPETGEPGLRVRFLDEDGAELFSEDRRSTALVWFGGDAPVAASSRVVFETVFTPAETGEIQLGFAGANPGRLYVDDRLVLDDTPVIEGTDLGAAFLNPPSLTAGVSVEQDTPIRVRVEFTLARGGALAGALSATVGIAPEATDPEALIARAVEAAAAADVAVVVVGTNSKVESEGYDRIDLDLPGRQDDLVRAVAATGTPVVVVVNAGSPVVLPWADEVSAIVQGYFGGQEFGHALADVLTGAAEPGGRLPTTWPATLADVPVQDVTPQDGVLTYGEGIHVGYRAWLKDAATPAFPFGHGLGYTTWSWGAAHRHGDAVDVTVRNTGDRAGKQVVQVYAERGDSSVDRPVRWLVGFATVHAEPGETVTATVPVPGRRLAHWADGWVVEPGAYTLRAGASVDDLPLALEWTVAE | – | – | – | – | – | – | – | – | – | – | <0.5 | 78.0 | <0.5
3 | 804 (protein, listed as Microbacterium trichothecenolyticum) MTETATSTHTDSVQHLVPLLDRLTLEQKAALVQGADFWTTVPLPEIGLRAMTLSDGPAGVRGPRWDEREPSLNLPSGSALAASWDVDLAYRYGAAAASEARRKGVDVVLGPTINLHRSPLGGRHFECFSEDPELTAELAAAYVRGLQDNDVAACPKHYVANDSETDRFTVDVRVDERALRENYLAPFERAVDAGAWTIMSAYNAVDGVTMTENDLLETPLNSEWGFDGVVISDWTAVRSLDSVPAAQDLAMPGPAPAWADLVAAIRDGRLNEADLDRKVLRVLLLAQRVGALGEREPREPAPLDGPAFAREAAIEGTVLLRNEGVLPLDASSLGRVAVIGQNAREARTQGGGSATVIPESVVSPLDAIRAAVPGADVGFEIGAVVQEGVAEIPLAHLTNPATGEAGIRVAFFDADGTELFAENRRSTALVWFGGDAPIAASATVVFETLYTPAETGDIELGFAGANPGKLYVDGQLVLDDSPVIEGTDLGAAFLNPPSITATVAVEAGRETAVRVEFSRESHGALSGALSATLGIAPERTDADELIARAVAEAAASDLAIVVVGTNSKVESEGYDRTSLDLPGRQDDLVRAVAATGTPTVVVVNAGSPVVLPWAEDVAAVVQGYFGGQEFGHAIADVLTGAAEPGGRLPTTWPAALADVPVTEVVPTDGRLEYREGLHIGYRAWLKADAVPAFAFGHGLGYTTWSWGAAQRTGDTVEVTLANTGHRRGKQVVQVYAERPESAVERPERWLVGFATVHAAPGETVTATIPVPARRLAHWAGEWTVESGAYTLRAGASVADLPLSLEWRIAS | – | – | – | – | – | – | – | – | – | – | <0.5 | 83.2 | <0.5
4 | 1017 (protein, listed as Kribbella flavida) MSFPAAPARLRFEHRTDPGPVLGIGTATPRLSWQVPTAPDDYRQAGYEVEIARGDAAPEQYTVDSADQVLVPWPGTPLAARESATVRVRVRGDGDWSQWSDPATVEAGLLSADDWTARFVSPRENAGHEAPAPLIGGVIDLPADIAQARLYATAHGIYEPTLNGTRVGDEQLAPGWTAYEQRLRYQTYDVTDLVAPGENRLELLVGNGWYRGRLGFHGKHSLYGDRLAVLAQLEVTTATGEVKVLASDGTWTTRETNVLADDLYDGQHVDLRRTLGEPGPVDVLDADLSLLVAPDGPPVRVTDVLPAKAVTTSPAGKTLVDFGQNVVGRLRLRVRGGAAGDEIVLRHAEVLEDGELGVRPLRTAKATDSFVLAGPDEVTLEPTLTFHGFRYAEITGVPDLRAEDVEAVVVGSDLRRTGWFESSHPLLDRFHENVVWGMRGNFLDVPTDCPQRDERLGWTGDIQVFSPTASFLFDTAGFLTNWLADLIAEQHKDGSVPFVVPDVLRQPGPATAAWGDAATIVPWVLYERTGDAGLLARQLPSMRAWVDRMAGLAGDDLLWVGGFQFGDWLDPTAPPDDPFRAKADPDVLATAHLARSAEVVALAAEVVGAGELAREYAELAARVRQAFAAEYTTGSGRVLSDAATNYALALQWALLPTEAQRKRAGERLADLVRTAGFRISTGFVGTPLMADALADSGHPDLAYRLLLETGCPSWLYAVTMDATTVWERWDSMLPDGSINPGQMTSFNHYALGAVADWMHRRVAGLAPGDPGYRRIVVDPLFTAHLTKASARHLTPYGEAAVAWSRSGGRVRLEVTVPVGARARVAVPGESAPVEVGHGTHEWTADDVYGETPPLPADATIRQLIDHEPSWTTLAAAATRTGIVADDAELAGRLERYLDHPATELVDAVSPRGFSPSAEALQAELDSVLGR | 6 | 63 | 31 | 0.017 | 0.004 | 0.000 | 0.19 | 17 | 56 | 27 | – | – | –
